Assay results published in article PMC4756287.

Experiments:
[1] = biological target: Photosystem II core (C) (Arabidopsis thaliana (endogenous in leaf thylakoids)) (UniProt P83755); experiment: native gel or EMSA; BN-PAGE (4-12.5%) followed by Tricine-SDS PAGE (2D-PAGE), Coomassie; isolated thylakoids, 8 μg Chl, 0.5 mg/ml Chl in 25 mM BisTris/HCl pH 7.0, 20% glycerol, solubilized with 1% α-DDM (0.6 and 1.5% as controls); plants grown under GL200, GL600, GL1800 or shifted 0.5, 2, 6 h to GL1800
[2] = biological target: Lhcb1,2 (major components of LHCII trimers); experiment: native gel or EMSA; BN-PAGE of purified LHCII trimers (3 μg of Chl) solubilized in 0.3, 0.6 and 1% α-DDM
[3] = biological target: Lhcb1,2 (major components of LHCII trimers); experiment: native gel or EMSA; BN-PAGE (4-12.5%) followed by Tricine-SDS PAGE (2D-PAGE), Coomassie; isolated thylakoids, 8 μg Chl, 0.5 mg/ml Chl in 25 mM BisTris/HCl pH 7.0, 20% glycerol, solubilized with 1% α-DDM (0.6 and 1.5% as controls); plants grown under GL200, GL600, GL1800 or shifted 0.5, 2, 6 h to GL1800

Substance | stoichiometry N [1] | stoichiometry N [2] | stoichiometry N [3]
Photosystem II core (C) (from UniProt P83755 1-344; P56761 1-353; P56777 1-508; P56778 15-473; P23321 86-332) (complex) | 2 | – | –
Lhcb1,2 (major components of LHCII trimers) | – | 3 | 3
